Laboratory results as given in IntAct's records for PubMed 19446522.

B1: "Na(+)/H(+) exchange regulatory cofactor NHE-RF1" (Homo sapiens), O14745 (parent)
chain: MSADAAAGAPLPRLCCLEKGPNGYGFHLHGEKGKLGQYIRLVEPGSPAEKAGLLAGDRLVEVNGENVEKETHQQVVSRIRAALNAVRLLVVDPETDEQLQKLGVQVREELLRAQEAPGQAEPPAAAEVQGAGNENEPREADKSHPEQRELRPRLCTMKKGPSGYGFNLHSDKSKPGQFIRSVDPDSPAEASGLRAQDRIVEVNGVCMEGKQHGDVVSAIRAGGDETKLLVVDRETDEFFKKCRVIPSQEHLNGPLPVPFTNGEIQKENSREALAEAALESPRPALVRSASSDTSEELNSQDSPPKQDSTAPSSTSSSDPILDFNISLAMAKERAHQKRSSKRAPQMDWSKKNELFSNL

Variants of: B1
Conditions: with CFTR

With MSADAAAGAPLPRLCCLEKGPNGYGFHLHGEKGKLGQYIRLVEPGSPAEKAGLLAGDRLVEVNGENVEKETHQQVVSRIRAALNAVRLLVVDPETDEQLQKLGVQVREELLRAQEAPGQAEPPAAAEVQGAGNENEPREADKSHPEQRELRPRLCTMKKGPSGYGFNLHSDKSKPGQFIRSVDPDSPAEASGLRAQDRIVEVNGVCMEGKQHGDVVSAIRAGGDETKLLVVDRETDEFFKKCRVIPSQEHLNGPLPVPFTNGEIQKENSREALAEAALESPRPALVRSASSDTSEELNSQDSPPKQDSTAPSSTSSSDPILDFNISLAMAKERAHQKRSSKRAPQMDWSKKNALFSNL [E353A] as the variant, how does the “effect of a mutation on the interaction” value read?
The value was “decreasing interaction”.
